Here are results for two substances from US9156916.

Test [1] deals with human surface membrane immunoglobulin D (smIgD) (human) (UniProt P01880). Description: cell-based or functional assay.
The target is the same in test [2]. Description: flow cytometry, dual labelling of human PBMC (CD3 and IgD). A general note: A flow cytometer gives signals particle by particle.
Test [3] has the same target. Nature of the test: flow cytometry, dual labelling of human PBMC (CD14 and IgD).

Sequence of UniProt P01880 (P01880 whole entry): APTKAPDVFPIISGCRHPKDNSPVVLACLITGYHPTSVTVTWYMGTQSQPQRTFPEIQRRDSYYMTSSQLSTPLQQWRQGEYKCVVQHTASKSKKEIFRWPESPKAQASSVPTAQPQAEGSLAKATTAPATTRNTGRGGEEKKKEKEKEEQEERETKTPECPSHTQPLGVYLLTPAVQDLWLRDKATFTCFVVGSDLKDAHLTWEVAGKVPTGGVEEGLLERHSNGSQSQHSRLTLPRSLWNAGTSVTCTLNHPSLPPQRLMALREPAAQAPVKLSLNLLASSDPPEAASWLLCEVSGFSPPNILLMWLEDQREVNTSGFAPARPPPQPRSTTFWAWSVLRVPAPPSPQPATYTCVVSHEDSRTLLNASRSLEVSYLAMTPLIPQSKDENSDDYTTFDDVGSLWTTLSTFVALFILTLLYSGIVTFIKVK

In test [1], “anti-human smIgD antibody (clone STAR94, Serotec, Oxford, UK)” returned a proportion of human monocyte population expressing intra-cellular TNF-α after LPS, antibody given 24 hrs before LPS (flow cytometry) of 5% and a proportion of human monocyte population expressing intra-cellular TNF-α, antibody given concurrently with LPS for 4 hours (flow cytometry) of 26%.

Regarding “goat FITC-conjugated anti-human IgD antibody (clone STAR94F)”, the percent of CD3+ T-cells labelled for smIgD in test [2] is 10%. This substance also showed a percent of CD14+ cells labelled for smIgD in test [3] of 54%.
